Measured values published in PMC6472409, “Dishevelled-3 conformation dynamics analyzed by FRET-based biosensors reveals a key role of casein kinase 1” (Nature Communications, 2019).
Substitutions are numbered along the chain they refer to. Where a SMILES comes first, the peptide text is derived from it. [ ]: non-standard residue; d: D form. The star is where a group is joined. FITC = O=C1OC2(c3ccc(O)cc3Oc3cc(O)ccc32)c2ccc(NC(=S)*)cc21; pS = N[C@@H](COP(=O)(O)O)C(=O)O; Ahx = NCCCCCC(=O)O

Tests used:
[1] = biological target: recombinant His-tagged human CK1ε (Homo sapiens, UniProt P49674); experiment: Fluorescence anisotropy (FA) binding of FITC-labeled peptides; details: FITC-Ahx peptide 50 nM, 30 min, 37 °C; n=3; read-out: affinity for recombinant CK1ε (fluorescence anisotropy)
recombinant His-tagged human CK1ε, sequence (P49674 whole entry): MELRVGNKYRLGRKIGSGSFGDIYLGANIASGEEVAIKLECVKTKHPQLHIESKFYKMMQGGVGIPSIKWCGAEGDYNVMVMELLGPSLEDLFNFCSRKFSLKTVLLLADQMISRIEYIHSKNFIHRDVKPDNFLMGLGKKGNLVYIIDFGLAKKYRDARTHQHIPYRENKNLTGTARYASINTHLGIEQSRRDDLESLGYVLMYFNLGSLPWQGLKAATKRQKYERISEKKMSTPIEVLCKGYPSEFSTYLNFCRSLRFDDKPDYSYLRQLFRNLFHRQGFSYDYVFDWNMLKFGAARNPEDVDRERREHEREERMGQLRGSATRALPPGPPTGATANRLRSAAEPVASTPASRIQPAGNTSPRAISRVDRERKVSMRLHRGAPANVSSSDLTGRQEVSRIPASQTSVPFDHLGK
Source text: The peptides used in the fluorescent polarization (FA) binding assays were synthesized at Pepscan B.V. (Lelystad, Netherlands). The sequences of these peptides (indicated in Supplementary Fig. 4a) were amidated at their C-termini, and their N-termini were acylated with 6-aminocaproic acid (Ahx) modified with fluorescein isothiocyanate (FITC). The peptides used in the NMR/SPR studies were purchased from KareBay Biochem, Inc. (New Jersey, USA). The peptides for the NMR/SPR studies contained no terminal modifications.
Data were recorded at 37 °C using Tecan Infinite F500 (Tecan Systems, Germany). FITC-labeled peptides were dissolved in DMSO and added to 384-well plates (Corning) to a total volume of 20 μl (peptide final concentration was 50 nM). Incubation with recombinant His-tagged human CK1ε (MyBioSource, #MBS964562) was performed for 30 min at 37 °C. Then, fluorescence intensities were collected simultaneously by detection at 535/590 and 485/535 nm excitation/emission wavelengths, respectively, followed by adjustment to the blank controls.

[2] = biological target: FITC-labeled peptide corresponding to the DVL3 FRMA region, non-phosphorylated (fluorescence anisotropy) (human); experiment: fluorescence polarisation; fluorescence anisotropy, 50 nM FITC-labeled peptide with recombinant His-tagged human CK1ε, 30 min at 37 °C, 384-well plates
[3] = biological target: FITC-labeled peptide corresponding to the DVL3 RGPR region, non-phosphorylated (fluorescence anisotropy) (human); experiment: as above
[4] = biological target: FITC-labeled peptide corresponding to the DVL3 RGCF region, non-phosphorylated (fluorescence anisotropy) (human); experiment: as above
[5] = biological target: T1, PDZ domain of human DVL2 (aa 265–361), phosphorylation-mimicking variant S286E + S329E (human, UniProt O14641 265-361, S286E | S329E); experiment: SPR; Biacore T200, PDZ immobilized on CM5 chip by amino coupling, peptide injected at increasing concentrations to steady state; one-site equilibrium fit, apparent KD; details: both partners purified
T1 construct: Dishevelled-2, human, PDZ domain aa 265-361 with S286E and S329E; 15N-labeled for NMR; also called S286E/S329E PDZ; PDZ phosphomimicking variant; source: E. coli BL21 (DE3), purified (Ni-NTA, TEV cleavage, ion exchange, size exclusion); not shown: His6, N-terminal, cleaved; lipoyl domain, N-terminal, cleaved
T1 sequence (looked up): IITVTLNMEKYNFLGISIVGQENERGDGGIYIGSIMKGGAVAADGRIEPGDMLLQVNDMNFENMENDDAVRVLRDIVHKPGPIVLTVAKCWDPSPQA

[6] = biological target: T2, PDZ domain of human DVL2 wild type (aa 265–361) (human, UniProt O14641 265-361); experiment: as above; details: both partners purified
T2 construct: Dishevelled-2, human, PDZ domain aa 265-361; 15N-labeled (13C/15N for assignment) for NMR; S286 and S329 correspond to S268 and S311 of human DVL3; also called DVL2 PDZ wild type; PDZ wt; source: E. coli BL21 (DE3), purified (Ni-NTA, TEV cleavage, ion exchange, size exclusion); not shown: His6, N-terminal, cleaved; lipoyl domain, N-terminal, cleaved
T2 sequence (looked up): T1 sequence (looked up) with E22S, E65S

[7] = biological target: T3, PDZ domain of human DVL2 wild type (aa 265–361) (human, UniProt O14641 265-361); experiment: NMR
T3 chain: T1 sequence (looked up) with E22S, E65S

[8] = biological target: T4, PDZ domain of human DVL2 (aa 265–361), phosphorylation-mimicking variant S286E + S329E (human, UniProt O14641 265-361, S286E | S329E); experiment: NMR
T4 sequence: T1 sequence (looked up)

[9] = biological target: T1, PDZ domain of human DVL2 (aa 265–361), …; experiment: NMR titration; 1H,15N HSQC series, 100 μM 15N-labeled PDZ with increasing amounts of peptide; 20 mM HEPES pH 6.8, 50 mM KCl; apparent KD from three fast-exchange cross-peaks; details: both partners purified

**Q.** With `CSCC[C@H](NC(=O)[C@H](C)NC(=O)[C@H](CCSC)NC(=O)[C@H](CCCNC(=N)N)NC(=O)[C@H](Cc1ccccc1)NC(=O)[C@H](CO)NC(=O)[C@H](CCC(N)=O)NC(=O)[C@H](CCCNC(=N)N)NC(=O)CCCCCNC(=S)Nc1ccc2c(c1)C(=O)OC21c2ccc(O)cc2Oc2cc(O)ccc21)C(=O)NCC(=O)N[C@@H](CC(N)=O)C(N)=O` [FRMA] ({FITC-Ahx}-RQSFRMAMGN-NH2) as the molecule, how does the Kd [1] read?
**A.** Its Kd is ~1000 nM.

**Q.** Which results are given for “recombinant His-tagged human CK1ε (MyBioSource, #MBS964562) (from UniProt P49674 1-416) (enzyme)”?
**A.** Kd [2]: 1000 nM; Kd [3]: 1000 nM; Kd [4]: 1000 nM

**Q.** How did the Kd [1] turn out when `CC(C)C[C@H](NC(=O)[C@H](CO)NC(=O)[C@H](CO)NC(=O)CCCCCNC(=S)Nc1ccc2c(c1)C(=O)OC21c2ccc(O)cc2Oc2cc(O)ccc21)C(=O)N[C@@H](CCCNC(=N)N)C(=O)NCC(=O)N1CCC[C@H]1C(=O)N[C@@H](CCCNC(=N)N)C(=O)N[C@@H](CCC(=O)O)C(=O)N[C@@H](CCCNC(=N)N)C(=O)N[C@@H](C)C(=O)N1CCC[C@H]1C(=O)N[C@@H](CO)C(=O)N[C@@H](CCC(=O)O)C(N)=O` [RGPR] ({FITC-Ahx}-SSLRGPRERAPSE-NH2) was run?
**A.** Its Kd is ~1000 nM.

**Q.** How did the Kd [1] turn out when `CC(C)C[C@H](NC(=O)[C@@H](NC(=O)[C@H](Cc1ccccc1)NC(=O)[C@H](CS)NC(=O)CNC(=O)[C@H](CCCNC(=N)N)NC(=O)[C@@H]1CCCN1C(=O)[C@H](CO)NC(=O)[C@@H]1CCCN1C(=O)CCCCCNC(=S)Nc1ccc2c(c1)C(=O)OC21c2ccc(O)cc2Oc2cc(O)ccc21)[C@@H](C)O)C(=O)N1CCC[C@H]1C(=O)N[C@@H](CCCNC(=N)N)C(=O)N[C@@H](CO)C(=O)N[C@@H](CCC(=O)O)C(N)=O` [RGCF] ({FITC-Ahx}-PSPRGCFTLPRSE-NH2) was run?
**A.** The Kd was ~1000 nM.

B1: phosphorylated (pS700) C-terminal peptide derived from DVL3 (aa 698–716) (peptide, UniProt Q92997 698-716, looked up)
peptide: H-RQ[pS]FRMAMGNPSEFFVDVM-OH
notes: Dishevelled-3, human, C-terminal aa 698-716; the last seven residues are printed as EFFVDIM; also called DVL C-terminal peptide; C-terminal DVL peptide (pS700); source: synthetic peptide, bought: KareBay Biochem
**Q.** For B1, which “fold lower affinity than PDZ wt” value [5] is on record?
**A.** Its value is 2 fold.

**Q.** Does B1 bind [6]?
**A.** Result: binds

**Q.** What about the Kd [7] of the same molecule?
**A.** The Kd was 296 µM.

**Q.** And the Kd [8]?
**A.** Its Kd is 625 µM.

**Q.** And the “fold weaker affinity than PDZ wt” value [9]?
**A.** The value was 2 fold.
